Stoichiometry N data for one molecule are collected here from publication PMC2917047.

The target in this assay is PDE6αβ catalytic dimer of rod cGMP phosphodiesterase 6 (bovine) (UniProt P11541). The experiment in a line: SDS-PAGE with Coomassie Blue densitometry of the purified complexes.
Sequence of PDE6αβ catalytic dimer of rod cGMP phosphodiesterase 6 (bovine) (P11541 whole entry, chain 1 of 2): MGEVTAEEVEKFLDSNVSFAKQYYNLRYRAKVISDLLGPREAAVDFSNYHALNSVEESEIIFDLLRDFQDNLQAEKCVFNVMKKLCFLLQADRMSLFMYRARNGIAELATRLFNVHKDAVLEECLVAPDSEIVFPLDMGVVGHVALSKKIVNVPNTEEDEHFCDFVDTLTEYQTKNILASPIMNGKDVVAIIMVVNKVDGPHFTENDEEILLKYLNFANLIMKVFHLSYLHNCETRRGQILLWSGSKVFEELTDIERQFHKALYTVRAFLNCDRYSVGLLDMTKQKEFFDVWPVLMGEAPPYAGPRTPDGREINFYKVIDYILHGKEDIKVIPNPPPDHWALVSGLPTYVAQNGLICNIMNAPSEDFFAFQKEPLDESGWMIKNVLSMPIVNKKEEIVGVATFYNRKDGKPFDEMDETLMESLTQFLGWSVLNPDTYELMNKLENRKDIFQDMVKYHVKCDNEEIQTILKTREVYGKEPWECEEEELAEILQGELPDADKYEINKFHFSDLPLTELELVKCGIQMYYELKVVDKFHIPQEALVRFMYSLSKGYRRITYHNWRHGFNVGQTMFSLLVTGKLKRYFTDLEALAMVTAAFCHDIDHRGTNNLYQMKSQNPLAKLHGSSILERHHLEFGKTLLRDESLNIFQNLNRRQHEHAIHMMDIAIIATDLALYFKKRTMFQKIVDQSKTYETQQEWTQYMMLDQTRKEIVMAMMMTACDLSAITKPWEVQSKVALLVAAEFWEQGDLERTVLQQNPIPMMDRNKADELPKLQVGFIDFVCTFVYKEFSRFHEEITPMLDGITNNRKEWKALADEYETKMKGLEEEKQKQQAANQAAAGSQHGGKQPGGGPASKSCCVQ
Sequence of PDE6αβ catalytic dimer of rod cGMP phosphodiesterase 6 (bovine) (P23439 whole entry, chain 2 of 2, further chain): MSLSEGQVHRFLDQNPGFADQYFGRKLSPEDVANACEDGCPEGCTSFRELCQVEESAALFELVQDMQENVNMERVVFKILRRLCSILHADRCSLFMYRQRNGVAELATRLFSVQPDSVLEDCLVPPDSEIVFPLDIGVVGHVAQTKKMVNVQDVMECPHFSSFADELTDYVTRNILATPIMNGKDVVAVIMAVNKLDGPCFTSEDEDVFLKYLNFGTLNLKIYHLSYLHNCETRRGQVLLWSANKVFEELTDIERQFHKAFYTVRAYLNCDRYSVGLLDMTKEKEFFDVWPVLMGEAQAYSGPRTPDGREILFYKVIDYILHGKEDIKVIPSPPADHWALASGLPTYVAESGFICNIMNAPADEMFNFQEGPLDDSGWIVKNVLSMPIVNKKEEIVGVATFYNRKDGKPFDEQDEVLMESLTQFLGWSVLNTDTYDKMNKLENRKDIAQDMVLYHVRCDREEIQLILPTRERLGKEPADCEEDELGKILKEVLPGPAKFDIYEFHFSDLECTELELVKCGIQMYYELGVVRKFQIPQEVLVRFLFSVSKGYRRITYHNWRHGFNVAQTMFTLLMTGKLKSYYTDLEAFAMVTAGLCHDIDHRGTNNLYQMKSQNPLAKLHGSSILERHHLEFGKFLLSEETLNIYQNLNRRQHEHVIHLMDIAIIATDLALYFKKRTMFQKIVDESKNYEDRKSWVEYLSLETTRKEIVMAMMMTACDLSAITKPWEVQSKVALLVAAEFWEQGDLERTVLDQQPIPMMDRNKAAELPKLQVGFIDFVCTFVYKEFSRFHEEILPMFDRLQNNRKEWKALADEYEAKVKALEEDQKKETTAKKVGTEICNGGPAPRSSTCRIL

B1: PDE6γ regulatory (inhibitory) subunit of rod cGMP phosphodiesterase 6 (natural protein)
chain: MNLEPPKAEIRSATRVMGGPVTPRKGPPKFKQRQTRQFKSKPPKKGVQGFGDDIPGMEGLGTDITVICPWEAFNHLELHELAQYGII
On to B1, for which the stoichiometry N was 2.

One may read the stoichiometry N as a count of units in the complex or per binding partner.
